Changes are numbered by the printed parent chain. Like-named read-outs stand apart in the source and are kept apart here.
B1: CLDN18L-Ea-pdl1a (bispecific antibody)
heavy: not shown
light: DIVMTQSPLSLPVTPGEPASISCKSSQTLLNSGNQKNYLTWYLQKPGQSPQLLIYWASTGESGVPDRFSGSGSGTDFTLKISRVEAEDVGVYYCQNAYFYPFTFGGGTKVEIKRTVAAPSVFIFPPSDEQLKSGTASVVCLLNNFYPREAKVQWKVDNALQSGNSQESVTEQDSKDSTYSLSSTLTLSKADYEKHKVYACEVTHQGLSSPVTKSFNRGECEPKSSDKGHGGPPGPEVQLVESGGGLVQPGGSLRLSCAASGRTFVTYGMGWFRQAPGKGREFVSAISWSGSMTSYGDSVKGRFTISRDNAKNTLYLQMNSLRPEDTAVYYCAAALGAVVYTTREPYTYWGQGTLVTVSS
B2: CLDN18L-E-pdl1b (bispecific antibody)
heavy: not shown
light: B1 light with G228T, G230T, G231S, G234S, M292S
B3: CLDN18H-E-pdl1b (bispecific antibody)
heavy: not shown
light: DIVMTQSPLSLPVTPGEPASISCKSSQTLLNSGNQKNYLTWYLQKPGQSPQLLIYWASTGESGVPDRFSGSGSGTDFTLKISRVEAEDVGVYYCQNAYFYPFTFGGGTKVEIKRTVAAPSVFIFPPSDEQLKSGTASVVCLLNNFYPREAKVQWKVDNALQSGNSQESVTEQDSKDSTYSLSSTLTLSKADYEKHKVYACEVTHQGLSSPVTKSFNRGEC
B4: CLDN18H-G9-pdl1a (bispecific antibody)
heavy: not shown
light: B3 light
B5: CLDN18H-G12-pdl1a (bispecific antibody)
heavy: not shown
light: B3 light
B6: CLDN18H-E-pdl1a (bispecific antibody)
heavy: not shown
light: B3 light
B7: CLDN18H-E-pdl1c (bispecific antibody)
heavy: not shown
light: B3 light
B8: pdl1a-G12-CLDN18H (bispecific antibody)
heavy: not shown
light: B3 light
B9: CLDN18H-G15-pdl1a (bispecific antibody)
heavy: not shown
light: B3 light
B10: pdl1a-G15-CLDN18H (bispecific antibody)
heavy: not shown
light: B3 light
B11: pdl1a-E-CLDN18H (bispecific antibody)
heavy: not shown
light: B3 light
B12: CLDN18L-E2-pdl1a (bispecific antibody)
heavy: not shown
light: DIVMTQSPLSLPVTPGEPASISCKSSQTLLNSGNQKNYLTWYLQKPGQSPQLLIYWASTGESGVPDRFSGSGSGTDFTLKISRVEAEDVGVYYCQNAYFYPFTFGGGTKVEIKRTVAAPSVFIFPPSDEQLKSGTASVVCLLNNFYPREAKVQWKVDNALQSGNSQESVTEQDSKDSTYSLSSTLTLSKADYEKHKVYACEVTHQGLSSPVTKSFNRGECERKSSVESPPSPEVQLVESGGGLVQPGGSLRLSCAASGRTFVTYGMGWFRQAPGKGREFVSAISWSGSMTSYGDSVKGRFTISRDNAKNTLYLQMNSLRPEDTAVYYCAAALGAVVYTTREPYTYWGQGTLVTVSS
B13: CLDN18L-E4-pdl1a (bispecific antibody)
heavy: not shown
light: B12 light with R222S, S224Y, S225G, V226P, E227P
B14: CLDN18L-E4a-pdl1a (bispecific antibody)
heavy: not shown
light: B12 light with R222S, S224Y, S225G, V226P, E227P, S228G, S231G
B15: CLDN18L-E2a-pdl1a (bispecific antibody)
heavy: not shown
light: B12 light with S225G, S228G, S231G
B16: CLDN18L-G9-pdl1a (bispecific antibody)
heavy: not shown
light: DIVMTQSPLSLPVTPGEPASISCKSSQTLLNSGNQKNYLTWYLQKPGQSPQLLIYWASTGESGVPDRFSGSGSGTDFTLKISRVEAEDVGVYYCQNAYFYPFTFGGGTKVEIKRTVAAPSVFIFPPSDEQLKSGTASVVCLLNNFYPREAKVQWKVDNALQSGNSQESVTEQDSKDSTYSLSSTLTLSKADYEKHKVYACEVTHQGLSSPVTKSFNRGECGGGGSGGGSEVQLVESGGGLVQPGGSLRLSCAASGRTFVTYGMGWFRQAPGKGREFVSAISWSGSMTSYGDSVKGRFTISRDNAKNTLYLQMNSLRPEDTAVYYCAAALGAVVYTTREPYTYWGQGTLVTVSS
B17: pdl1a-G12-CLDN18L (bispecific antibody)
heavy: not shown
light: EVQLVESGGGLVQPGGSLRLSCAASGRTFVTYGMGWFRQAPGKGREFVSAISWSGSMTSYGDSVKGRFTISRDNAKNTLYLQMNSLRPEDTAVYYCAAALGAVVYTTREPYTYWGQGTLVTVSSGGGGSGGGGSGSDIVMTQSPLSLPVTPGEPASISCKSSQTLLNSGNQKNYLTWYLQKPGQSPQLLIYWASTGESGVPDRFSGSGSGTDFTLKISRVEAEDVGVYYCQNAYFYPFTFGGGTKVEIKRTVAAPSVFIFPPSDEQLKSGTASVVCLLNNFYPREAKVQWKVDNALQSGNSQESVTEQDSKDSTYSLSSTLTLSKADYEKHKVYACEVTHQGLSSPVTKSFNRGEC
B18: pdl1a-G15-CLDN18L (bispecific antibody)
heavy: not shown
light: EVQLVESGGGLVQPGGSLRLSCAASGRTFVTYGMGWFRQAPGKGREFVSAISWSGSMTSYGDSVKGRFTISRDNAKNTLYLQMNSLRPEDTAVYYCAAALGAVVYTTREPYTYWGQGTLVTVSSGGGGSGGGGSGGGGSDIVMTQSPLSLPVTPGEPASISCKSSQTLLNSGNQKNYLTWYLQKPGQSPQLLIYWASTGESGVPDRFSGSGSGTDFTLKISRVEAEDVGVYYCQNAYFYPFTFGGGTKVEIKRTVAAPSVFIFPPSDEQLKSGTASVVCLLNNFYPREAKVQWKVDNALQSGNSQESVTEQDSKDSTYSLSSTLTLSKADYEKHKVYACEVTHQGLSSPVTKSFNRGEC
B19: pdl1a-E-CLDN18L (bispecific antibody)
heavy: not shown
light: EVQLVESGGGLVQPGGSLRLSCAASGRTFVTYGMGWFRQAPGKGREFVSAISWSGSMTSYGDSVKGRFTISRDNAKNTLYLQMNSLRPEDTAVYYCAAALGAVVYTTREPYTYWGQGTLVTVSSEPKSSDKTHTSPPSPDIVMTQSPLSLPVTPGEPASISCKSSQTLLNSGNQKNYLTWYLQKPGQSPQLLIYWASTGESGVPDRFSGSGSGTDFTLKISRVEAEDVGVYYCQNAYFYPFTFGGGTKVEIKRTVAAPSVFIFPPSDEQLKSGTASVVCLLNNFYPREAKVQWKVDNALQSGNSQESVTEQDSKDSTYSLSSTLTLSKADYEKHKVYACEVTHQGLSSPVTKSFNRGEC
B20: CLDN18L-G12-pdl1a (bispecific antibody)
heavy: not shown
light: DIVMTQSPLSLPVTPGEPASISCKSSQTLLNSGNQKNYLTWYLQKPGQSPQLLIYWASTGESGVPDRFSGSGSGTDFTLKISRVEAEDVGVYYCQNAYFYPFTFGGGTKVEIKRTVAAPSVFIFPPSDEQLKSGTASVVCLLNNFYPREAKVQWKVDNALQSGNSQESVTEQDSKDSTYSLSSTLTLSKADYEKHKVYACEVTHQGLSSPVTKSFNRGECGGGGSGGGGSGSEVQLVESGGGLVQPGGSLRLSCAASGRTFVTYGMGWFRQAPGKGREFVSAISWSGSMTSYGDSVKGRFTISRDNAKNTLYLQMNSLRPEDTAVYYCAAALGAVVYTTREPYTYWGQGTLVTVSS
B21: CLDN18L-G15-pdl1a (bispecific antibody)
heavy: not shown
light: DIVMTQSPLSLPVTPGEPASISCKSSQTLLNSGNQKNYLTWYLQKPGQSPQLLIYWASTGESGVPDRFSGSGSGTDFTLKISRVEAEDVGVYYCQNAYFYPFTFGGGTKVEIKRTVAAPSVFIFPPSDEQLKSGTASVVCLLNNFYPREAKVQWKVDNALQSGNSQESVTEQDSKDSTYSLSSTLTLSKADYEKHKVYACEVTHQGLSSPVTKSFNRGECGGGGSGGGGSGGGGSEVQLVESGGGLVQPGGSLRLSCAASGRTFVTYGMGWFRQAPGKGREFVSAISWSGSMTSYGDSVKGRFTISRDNAKNTLYLQMNSLRPEDTAVYYCAAALGAVVYTTREPYTYWGQGTLVTVSS

Key:
Assay in all cases: FACS binding, CHO-K1 cells
human PD-L1 [1] = molecular target: T1, human PD-L1 (human, UniProt Q9NZQ7 19-290)
T1 sequence (Q9NZQ7 19-290): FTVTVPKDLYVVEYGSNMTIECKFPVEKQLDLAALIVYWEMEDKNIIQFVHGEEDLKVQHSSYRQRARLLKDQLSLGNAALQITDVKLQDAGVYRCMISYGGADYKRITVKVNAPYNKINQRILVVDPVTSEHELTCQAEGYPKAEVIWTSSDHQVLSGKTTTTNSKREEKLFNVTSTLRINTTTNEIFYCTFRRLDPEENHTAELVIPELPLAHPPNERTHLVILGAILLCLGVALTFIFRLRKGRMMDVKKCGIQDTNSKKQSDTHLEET

human PD-L1 [2] = molecular target: T1, human PD-L1; remark: listed apart in the source
human PD-L1 [3] = molecular target: T1, human PD-L1; remark: listed apart in the source

| Binder | EC50 (human PD-L1 [1]) | EC50 (human PD-L1 [2]) | EC50 (human PD-L1 [3]) |
| --- | --- | --- | --- |
| B1 | 0.394 nM | – | – |
| B2 | – | 0.516 nM | – |
| B3 | – | 0.296 nM | – |
| B4 | – | – | 0.111 nM |
| B5 | – | – | 0.281 nM |
| B6 | – | 1.46 nM | – |
| B7 | – | 0.317 nM | – |
| B8 | – | – | 0.0989 nM |
| B9 | – | 0.525 nM | 0.219 nM |
| B10 | – | – | 0.134 nM |
| B11 | – | 0.0745 nM | 0.143 nM |
| B12 | 0.333 nM | – | – |
| B13 | 0.424 nM | – | – |
| B14 | 0.452 nM | – | – |
| B15 | 0.439 nM | – | – |
| B16 | 0.591 nM | – | 0.418 nM |
| B17 | – | – | 0.0898 nM |
| B18 | – | – | 0.147 nM |
| B19 | – | 0.131 nM | 0.107 nM |
| B20 | – | – | 0.808 nM |
| B21 | – | 0.456 nM | 0.404 nM |
